Test results taken from publication PMC2587052 (Nature structural & molecular biology, 2008).
Numbering of substitutions follows the chain as printed. In names and notes the source's numbering stands.

B1: synaptotagmin-1 C2AB fragment (residues 140-421), wild type (domain or fragment)
chain: EKLGKLQYSLDYDFQNNQLLVGIIQAAELPALDMGGTSDPYVKVFLLPDKKKKFETKVHRKTLNPVFNEQFTFKVPYSELGGKTLVMAVYDFDRFSKHDIIGEFKVPMNTVDFGHVTEEWRDLQSAEKEEQEKLGDICFSLRYVPTAGKLTVVILEAKNLKKMDVGGLSDPYVKIHLMQNGKRLKKKKTTIKKNTLNPYYNESFSFEVPFEQIQKVQVVVTVLDYDKIGKNDAIGKVFVGYNSTGAELRHWSDMLANPRRPIAQWHTLQVEEEVDAMLAVKK
B2: synaptotagmin-1 C2AB fragment (residues 140-421) R398Q,R399Q mutant (domain or fragment)
chain: B1 chain with R259Q, R260Q

Biological target: SNARE complex reconstituted and anchored on supported phospholipid bilayers (rat | human, UniProt P32851;P60880-2;P63045)

Row | Binder | EC50 [nM]
1 | B1 | 12
2 | B2 | 12
